Kd data for two substances are collected here from PMC3909490.

This experiment has as its target FITC-casein (UniProt P02662). Description: fluorescence polarisation.
Sequence of UniProt P02662 (P02662 16-214): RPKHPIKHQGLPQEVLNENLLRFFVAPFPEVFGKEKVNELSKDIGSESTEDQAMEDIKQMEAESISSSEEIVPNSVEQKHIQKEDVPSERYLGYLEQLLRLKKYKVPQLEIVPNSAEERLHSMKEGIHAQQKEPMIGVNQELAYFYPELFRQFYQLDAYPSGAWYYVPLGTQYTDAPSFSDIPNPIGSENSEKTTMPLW

In turn, “Hsp104^A503V (from UniProt P31539 1-908) (natural protein)” came in with a Kd of 80 nM. To “Hsp104^WT (from UniProt P31539 1-908) (natural protein)” belongs 65 nM.
